Substitutions are numbered along the chain they refer to. In names and notes the source's numbering stands. Several values for one entry are separate records, joined by “and”; a condition that tells them apart may be missing. Equal entries are not always repeated. Blank lines part the entries; values can stand above or below the molecule they belong to.
Experiments:
[1] = molecular target: wild-type human retinoschisin (human) (UniProt O15537); assay: native gel or EMSA; blue-native PAGE and native blot of purified retinoschisin (H207Q at ~0.1 mg/ml)
[2] = molecular target: wild-type human retinoschisin (human) (UniProt O15537); assay: SEC-MALS; octamer fraction; 10 mM Tris pH 7.4, 150 mM NaCl
[3] = molecular target: wild-type human retinoschisin (human) (UniProt O15537); assay: negative-stain EM; 20 µg/ml octamer on carbon coated grids, uranyl acetate, reference-free class averages
[4] = molecular target: wild-type human retinoschisin (human) (UniProt O15537); assay: cryo-EM structure; 0.1 mg/ml of octamer vitrified on C-Flat R2/2 grids; C8 (wild type) or D8 (R141H) symmetry
[5] = molecular target: wild-type human retinoschisin (human) (UniProt O15537); assay: AUC; sedimentation velocity of the octamer fraction, ~0.1 mg/ml, 10 mM Tris pH 7.4, 150 mM NaCl, 20°C, 45,000 rpm
[6] = molecular target: the molecule itself; assay: SEC-MALS; octamer fraction; 10 mM Tris pH 7.4, 150 mM NaCl
[7] = molecular target: the molecule itself; assay: native gel or EMSA; blue-native PAGE and native blot of purified retinoschisin (H207Q at ~0.1 mg/ml)
[8] = molecular target: the molecule itself; assay: negative-stain EM; 20 µg/ml octamer on carbon coated grids, uranyl acetate, reference-free class averages

stoichiometry N [1]: 8 and 16 | stoichiometry N [2]: 8 | stoichiometry N [3]: 8 | stoichiometry N [4]: 8 and 16 | stoichiometry N [5]: 8
Molecule: wild-type human retinoschisin (from UniProt O15537 24-224) (natural protein)

B1: R141H human retinoschisin (natural protein, UniProt O15537 24-224, looked up)
chain: STEDEGEDPWYQKACKCDCQGGPNALWSAGATSLDCIPECPYHKPLGFESGEVTPDQITCSNPEQYVGWYSSWTANKARLNSQGFGCAWLSKFQDSSQWLQIDLKEIKVISGILTQGHCDIDEWMTKYSVQYRTDERLNWIYYKDQTGNNRVFYGNSDRTSTVQNLLRPPIISRFIRLIPLGWHVRIAIRMELLECVSKCA
notes: retinoschisin, human, product of the RS1 gene, with the XLRS-associated mutation R141H; Disease-causing (XLRS) mutation that occurs in patients; Same construct as m1 apart from the mutation; also called R141H retinoschisin; R141H mutant
stoichiometry N [6]: 8 | stoichiometry N [7]: 16

B2: H207Q human retinoschisin (natural protein, UniProt O15537 24-224, looked up)
chain: B1 chain with H118R, H184Q
notes: retinoschisin, human, product of the RS1 gene, with the XLRS-associated mutation H207Q; Disease-causing (XLRS) mutation that occurs in patients; Same construct as m1 apart from the mutation; also called H207Q retinoschisin; H207Q mutant
stoichiometry N [8]: 8 | stoichiometry N [7]: 16

Reference: publication PMC5418834, “Structural analysis of X-linked retinoschisis mutations reveals distinct classes which differentially effect retinoschisin function” (Human Molecular Genetics, 2016)
